T1: SIP2 D1 (Plasmodium falciparum, UniProt C6KSN9 177-235)
T1 sequence: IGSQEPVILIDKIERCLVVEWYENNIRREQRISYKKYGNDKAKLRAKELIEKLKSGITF


Experiments:
SIP2 D1 = target: T1, SIP2 D1; assay: gcPBM; about 25 ug protein; PBS, 1% milk, 0.2 mg/ml BSA, salmon testes DNA, 0.03% Triton X-100; settings: tags: N-terminal GST (pGEX-4T-1), kept; label: surface-attached array probe
AP2-I D3 = AP2-I D3 (Plasmodium falciparum, UniProt Q8IJW6 910-1027); assay: as above; settings: tags: N-terminal GST (pGEX-4T-1), kept; label: surface-attached array probe

Binder | binding signal (SIP2 D1) | binding signal (AP2-I D3)
GTGCAC_site10664 (dsDNA) DNA 1: TATTCATATTTAAAGGTGCAATATTTATTTTGTACA DNA 2: TGTACAAAATAAATATTGCACCTTTAAATATGAATA | 9.97 ln median PBM intensity, better of two orientations | 11.2 ln median PBM intensity, better of two orientations
GTGCAC_site9800 (dsDNA) DNA 1: AATCATATTAGTATGGTGCAATATATATATAAATAT DNA 2: ATATTTATATATATATTGCACCATACTAATATGATT | 9.96 ln median PBM intensity, better of two orientations | 12 ln median PBM intensity, better of two orientations
GTGCAC_site9498 (dsDNA) DNA 1: ATTTGTGATTTGTGTGTGCACGTATTTACAGAACAA DNA 2: TTGTTCTGTAAATACGTGCACACACAAATCACAAAT | 9.78 ln median PBM intensity, better of two orientations | 10.7 ln median PBM intensity, better of two orientations
GTGCAC_site10258 (dsDNA) DNA 1: GCGTGTGTACAATGAGTGCATATCTAAAGGGAAGAT DNA 2: ATCTTCCCTTTAGATATGCACTCATTGTACACACGC | 9.38 ln median PBM intensity, better of two orientations | 10 ln median PBM intensity, better of two orientations
GTGCAC_negctrl_site223 (dsDNA) DNA 1: AAAAGATTAAGTAGAATAATGTTCTTTCCCAACATA DNA 2: TATGTTGGGAAAGAACATTATTCTACTTAATCTTTT | 6.44 ln median PBM intensity, better of two orientations | 7.05 ln median PBM intensity, better of two orientations
GTGCAC_negctrl_site84 (dsDNA) DNA 1: TTGAGCATAAAATTTGGAAACCTCAATCGGACAAAA DNA 2: TTTTGTCCGATTGAGGTTTCCAAATTTTATGCTCAA | 6.59 ln median PBM intensity, better of two orientations | 6.92 ln median PBM intensity, better of two orientations
GTGCAC_negctrl_site258 (dsDNA) DNA 1: AATATTTTGTTATTTATTTAATCTAATATTATGATA DNA 2: TATCATAATATTAGATTAAATAAATAACAAAATATT | 6.61 ln median PBM intensity, better of two orientations | 6.98 ln median PBM intensity, better of two orientations
GTGCAC_negctrl_site563 (dsDNA) DNA 1: ATTCAATAATTGTTTTTTTTCTTTTTGTTTTTGTTT DNA 2: AAACAAAAACAAAAAGAAAAAAAACAATTATTGAAT | 6.64 ln median PBM intensity, better of two orientations | 6.85 ln median PBM intensity, better of two orientations
GTGCAC_negctrl_site586 (dsDNA) DNA 1: ATATGATTATTATTATATAAATTATAAAGTCTAATA DNA 2: TATTAGACTTTATAATTTATATAATAATAATCATAT | 6.69 ln median PBM intensity, better of two orientations | 6.95 ln median PBM intensity, better of two orientations
GTGCAC_negctrl_site659 (dsDNA) DNA 1: TTGTTAATATGATAAAAGAGGAATATTCTCTTCCTA DNA 2: TAGGAAGAGAATATTCCTCTTTTATCATATTAACAA | 6.7 ln median PBM intensity, better of two orientations | 6.7 ln median PBM intensity, better of two orientations
GTGCAC_negctrl_site384 (dsDNA) DNA 1: TTATAATGAAATATATTCTTATTCTTTTTTTTTTTT DNA 2: AAAAAAAAAAAAGAATAAGAATATATTTCATTATAA | 6.7 ln median PBM intensity, better of two orientations | 7.14 ln median PBM intensity, better of two orientations
GTGCAC_negctrl_site43 (dsDNA) DNA 1: ATTTATAAAATATAATTACATTTTTAAATAATAAAA DNA 2: TTTTATTATTTAAAAATGTAATTATATTTTATAAAT | 6.72 ln median PBM intensity, better of two orientations | 7.13 ln median PBM intensity, better of two orientations
GTGCAC_negctrl_site353 (dsDNA) DNA 1: GAATATTTATGATGAACTATTAATTAATTTTACATA DNA 2: TATGTAAAATTAATTAATAGTTCATCATAAATATTC | 6.72 ln median PBM intensity, better of two orientations | 6.76 ln median PBM intensity, better of two orientations
GTGCAC_negctrl_site665 (dsDNA) DNA 1: TTTTAAATCTTATATTCCCCACATAAATAGCTCTCT DNA 2: AGAGAGCTATTTATGTGGGGAATATAAGATTTAAAA | 6.72 ln median PBM intensity, better of two orientations | 7.16 ln median PBM intensity, better of two orientations
GTGCAC_negctrl_site391 (dsDNA) DNA 1: TTTTTTATTTTAATGTATTATTTTTATGTAATATAT DNA 2: ATATATTACATAAAAATAATACATTAAAATAAAAAA | 6.72 ln median PBM intensity, better of two orientations | 7.14 ln median PBM intensity, better of two orientations
GTGCAC_negctrl_site217 (dsDNA) DNA 1: TGACTTTGTTGAATTTGTCCTCTTAACTCATAATAT DNA 2: ATATTATGAGTTAAGAGGACAAATTCAACAAAGTCA | 6.72 ln median PBM intensity, better of two orientations | 7.06 ln median PBM intensity, better of two orientations
GTGCAC_negctrl_site108 (dsDNA) DNA 1: TTGTTTAACTTGTTAAATATAATGTATCTGTGGATA DNA 2: TATCCACAGATACATTATATTTAACAAGTTAAACAA | 6.74 ln median PBM intensity, better of two orientations | 7.12 ln median PBM intensity, better of two orientations
GTGCAC_negctrl_site458 (dsDNA) DNA 1: ATGTAATTATAAGATTAATATACATAATTATATGTA DNA 2: TACATATAATTATGTATATTAATCTTATAATTACAT | 6.75 ln median PBM intensity, better of two orientations | 7.02 ln median PBM intensity, better of two orientations
GTGCAC_negctrl_site660 (dsDNA) DNA 1: AATTAATTTATTTTATAAATAGTTAGATCGTCATAA DNA 2: TTATGACGATCTAACTATTTATAAAATAAATTAATT | 6.78 ln median PBM intensity, better of two orientations | 7.02 ln median PBM intensity, better of two orientations
GTGCAC_negctrl_site81 (dsDNA) DNA 1: TTTATTAGATAACGATAAACGAAAAAAAAAAAATAA DNA 2: TTATTTTTTTTTTTTCGTTTATCGTTATCTAATAAA | 6.8 ln median PBM intensity, better of two orientations | 7.19 ln median PBM intensity, better of two orientations

Binder | binding signal (SIP2 D1) | binding signal (AP2-I D3)
GTGCAC_negctrl_site647 (dsDNA) DNA 1: ATCAGTGATTAGGTTATATATAAAAATGAACTAATA DNA 2: TATTAGTTCATTTTTATATATAACCTAATCACTGAT | 6.8 ln median PBM intensity, better of two orientations | 7.28 ln median PBM intensity, better of two orientations
GTGCAC_negctrl_site191 (dsDNA) DNA 1: TTTTAAATTGGAGTGGGCAGATTGATATTATTCTTC DNA 2: GAAGAATAATATCAATCTGCCCACTCCAATTTAAAA | 6.81 ln median PBM intensity, better of two orientations | 7.28 ln median PBM intensity, better of two orientations
GTGCAC_negctrl_site491 (dsDNA) DNA 1: TTTTTTATTTTTTACATATTTAGCTCATATTTATAT DNA 2: ATATAAATATGAGCTAAATATGTAAAAAATAAAAAA | 6.81 ln median PBM intensity, better of two orientations | 7.12 ln median PBM intensity, better of two orientations
GTGCAC_negctrl_site214 (dsDNA) DNA 1: ACCCAAGAGAAAAGAGAAAGAAATATGTGTATATTG DNA 2: CAATATACACATATTTCTTTCTCTTTTCTCTTGGGT | 6.82 ln median PBM intensity, better of two orientations | 7.02 ln median PBM intensity, better of two orientations
GTGCAC_negctrl_site613 (dsDNA) DNA 1: TACTCAAAAATTAATTAGCATAATATATATAAAAAT DNA 2: ATTTTTATATATATTATGCTAATTAATTTTTGAGTA | 6.83 ln median PBM intensity, better of two orientations | 7.28 ln median PBM intensity, better of two orientations
GTGCAC_negctrl_site728 (dsDNA) DNA 1: TTTTGTAAAATTAATTTATTATACATATATATTTCT DNA 2: AGAAATATATATGTATAATAAATTAATTTTACAAAA | 6.83 ln median PBM intensity, better of two orientations | 7.06 ln median PBM intensity, better of two orientations
GTGCAC_negctrl_site670 (dsDNA) DNA 1: TAAGACTATTAAAAAATTGAGTACATGAACTGTTCA DNA 2: TGAACAGTTCATGTACTCAATTTTTTAATAGTCTTA | 6.86 ln median PBM intensity, better of two orientations | 7.11 ln median PBM intensity, better of two orientations
GTGCAC_negctrl_site170 (dsDNA) DNA 1: AATATATTTTGATATGAACAATTAATAATTTCAAAT DNA 2: ATTTGAAATTATTAATTGTTCATATCAAAATATATT | 6.86 ln median PBM intensity, better of two orientations | 7.19 ln median PBM intensity, better of two orientations
GTGCAC_negctrl_site86 (dsDNA) DNA 1: ATTTTTTTATACAATTTTATATATTAAATATTATAA DNA 2: TTATAATATTTAATATATAAAATTGTATAAAAAAAT | – | 7.23 ln median PBM intensity, better of two orientations
GTGCAC_negctrl_site688 (dsDNA) DNA 1: ATAATTATTTAATATATATATATTATTTCGAATGTT DNA 2: AACATTCGAAATAATATATATATATTAAATAATTAT | – | 7.24 ln median PBM intensity, better of two orientations
GTGCAC_negctrl_site529 (dsDNA) DNA 1: TTATTATATATGTTCACATAAATACATAAATATATA DNA 2: TATATATTTATGTATTTATGTGAACATATATAATAA | – | 7.24 ln median PBM intensity, better of two orientations
GTGCAC_negctrl_site106 (dsDNA) DNA 1: AAATAAAATAATTATAATACTAAAAATAATACATAA DNA 2: TTATGTATTATTTTTAGTATTATAATTATTTTATTT | – | 7.24 ln median PBM intensity, better of two orientations
GTGCAC_negctrl_site8 (dsDNA) DNA 1: TTTTGTAGCAAAAAATAGGAAAAAAAAAAATTAAAT DNA 2: ATTTAATTTTTTTTTTTCCTATTTTTTGCTACAAAA | – | 7.26 ln median PBM intensity, better of two orientations
GTGCAC_negctrl_site349 (dsDNA) DNA 1: AAATAAAAATAAAATAAAATAAAATTAAATGGGAAT DNA 2: ATTCCCATTTAATTTTATTTTATTTTATTTTTATTT | – | 7.26 ln median PBM intensity, better of two orientations
GTGCAC_negctrl_site578 (dsDNA) DNA 1: TTTTATTTTATTCAATTTTTACTTTTATAAAAATAT DNA 2: ATATTTTTATAAAAGTAAAAATTGAATAAAATAAAA | – | 7.27 ln median PBM intensity, better of two orientations
GTGCAC_negctrl_site403 (dsDNA) DNA 1: TATTTCATCTTTTAAGAAGGTACCCATATGTCATAT DNA 2: ATATGACATATGGGTACCTTCTTAAAAGATGAAATA | – | 7.27 ln median PBM intensity, better of two orientations
GTGCAC_negctrl_site292 (dsDNA) DNA 1: TTACGTATGTATTATGTTGTATATGAAATTAAAAAA DNA 2: TTTTTTAATTTCATATACAACATAATACATACGTAA | – | 7.28 ln median PBM intensity, better of two orientations
GTGCAC_negctrl_site608 (dsDNA) DNA 1: TAATGAGGAAAAAGTGTGTTAAGATTTTATAATTTA DNA 2: TAAATTATAAAATCTTAACACACTTTTTCCTCATTA | – | 7.28 ln median PBM intensity, better of two orientations
GTGCAC_negctrl_site296 (dsDNA) DNA 1: ATTTAAAATAGAAGTTATATTTATATGGGTGAAAAA DNA 2: TTTTTCACCCATATAAATATAACTTCTATTTTAAAT | – | 7.29 ln median PBM intensity, better of two orientations

Source: article PMC11417369, “DNA sequence and chromatin differentiate sequence-specific transcription factor binding in the human malaria parasite Plasmodium falciparum”
